The source of these data is US20230265169A1 (US Dept. of Health and Human Services, published 2023).

Assay [1] has as its target T1, MERS-CoV RBD antigen (receptor binding domain, amino acids 377 to 588 of the spike protein) (MERS-CoV, UniProt K9N5Q8 377-588).
Assay [2] deals with T2, MERS-CoV spike protein on live MERS-CoV (EMC, KNIH-002, KNIH-016 and KNIH-042 strains) (MERS-CoV).
T2 chain: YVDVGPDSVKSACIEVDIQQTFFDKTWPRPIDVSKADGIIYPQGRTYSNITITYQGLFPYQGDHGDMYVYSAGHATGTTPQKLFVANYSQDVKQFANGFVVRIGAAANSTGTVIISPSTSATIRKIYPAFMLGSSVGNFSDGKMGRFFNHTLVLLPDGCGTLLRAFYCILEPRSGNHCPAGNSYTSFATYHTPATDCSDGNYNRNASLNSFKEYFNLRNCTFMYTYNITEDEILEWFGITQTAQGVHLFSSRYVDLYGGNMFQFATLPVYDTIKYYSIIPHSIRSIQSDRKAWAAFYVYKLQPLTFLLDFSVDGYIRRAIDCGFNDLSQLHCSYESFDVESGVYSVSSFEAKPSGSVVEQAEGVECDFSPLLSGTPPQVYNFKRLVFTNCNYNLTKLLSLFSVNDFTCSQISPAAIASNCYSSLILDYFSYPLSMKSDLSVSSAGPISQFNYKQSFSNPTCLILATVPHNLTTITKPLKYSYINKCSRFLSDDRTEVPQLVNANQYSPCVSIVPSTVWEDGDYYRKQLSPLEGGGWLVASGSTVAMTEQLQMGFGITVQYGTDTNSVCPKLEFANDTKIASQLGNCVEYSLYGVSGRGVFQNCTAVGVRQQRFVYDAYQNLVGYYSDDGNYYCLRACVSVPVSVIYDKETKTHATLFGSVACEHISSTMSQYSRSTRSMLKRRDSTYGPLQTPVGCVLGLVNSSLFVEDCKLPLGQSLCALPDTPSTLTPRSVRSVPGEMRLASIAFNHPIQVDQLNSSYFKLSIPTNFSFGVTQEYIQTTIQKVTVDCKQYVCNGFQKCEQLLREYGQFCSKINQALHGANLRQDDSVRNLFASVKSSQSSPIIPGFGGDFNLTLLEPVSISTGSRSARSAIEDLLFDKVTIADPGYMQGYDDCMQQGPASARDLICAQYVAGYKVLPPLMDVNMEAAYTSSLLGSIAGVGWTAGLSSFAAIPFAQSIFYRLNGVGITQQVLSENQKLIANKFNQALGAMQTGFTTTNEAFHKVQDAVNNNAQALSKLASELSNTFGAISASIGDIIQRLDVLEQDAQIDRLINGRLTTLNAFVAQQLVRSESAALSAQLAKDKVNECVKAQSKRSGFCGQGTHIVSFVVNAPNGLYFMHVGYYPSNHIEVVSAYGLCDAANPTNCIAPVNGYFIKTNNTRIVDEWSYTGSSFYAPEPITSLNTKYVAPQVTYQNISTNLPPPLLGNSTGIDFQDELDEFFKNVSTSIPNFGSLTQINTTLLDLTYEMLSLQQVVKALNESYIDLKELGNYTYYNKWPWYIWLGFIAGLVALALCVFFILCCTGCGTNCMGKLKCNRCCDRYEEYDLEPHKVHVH
Description: cell-based or functional assay. The arrangement: ND50 (PRNT with MERS-CoV): unit not given beside the values.

Assay [3] addresses T1, MERS-CoV RBD antigen (receptor binding …). Description: SPR, RBD antigen on CM5 chip, antibody as analyte (called avidity).
Assay [4] deals with T3, MERS-CoV S1 antigen (S1 domain, amino acids 1 to 757 of the spike protein) (MERS-CoV, UniProt K9N5Q8 18-757).
T3 construct: also called MERS-CoV S1 domain
Put plainly: SPR, S1 antigen on CM5 chip, antibody as analyte (called avidity).

The target in assay [5] is T1, MERS-CoV RBD antigen (receptor binding …). Description: ELISA, RBD antigen coated.
Assay [6] addresses MERS-CoV full-length spike trimer antigen (amino acids 1 to 1275 of the spike protein, lacking the … (MERS-CoV, UniProt K9N5Q8 18-1275)).
The target in assay [7] is T1, MERS-CoV RBD antigen (receptor binding …). Put plainly: SPR, RBD antigen attached on a CM5 chip, antibody loaded, HBS-EP.

B1: 90-F2 antibody (antibody, V domains shown)
VH: QVQLVQSGAEVKKPGASVKVSCKASGYTFTTYYMHWVRQAPGQGLEWMGIINPSGGSTSYAQKFQGRVTMTRDTSTSTVYMELSSLRSEDTAVYYCARGAVVVILDYWGQGTLVTVSS
VL: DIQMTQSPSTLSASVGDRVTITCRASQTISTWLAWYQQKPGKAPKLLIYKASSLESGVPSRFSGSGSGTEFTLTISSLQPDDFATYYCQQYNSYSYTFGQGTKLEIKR
Take B1: the “EC50 (read off the curve)” value in assay [1] was about 0.07 µg/mL. For the same molecule, in assay [2], the “ND50 (PRNT with MERS-CoV)” value stood at 54 and the “ND50 antibody conc. (PRNT with MERS-CoV)” value was 0.19 µg/mL. Further, in assay [3], the Kd turned out to be 5.86 nM, the koff worked out at 0.0014 s⁻¹ and the kon worked out at 238000 M⁻¹ s⁻¹. In assay [4], this molecule had a Kd of 6.6 nM, a koff of 0.000882 s⁻¹ and a kon of 134000 M⁻¹ s⁻¹.

B2: 90-C4 antibody (antibody, V domains shown)
VH: QVQLQESGPGLVKPSGTLSLTCAVSGGSINSSNWWSWVRQPPGKGLEWIGEIYYSGSTNYNPSLKSRVTTSVDNSKNQFSLKLSSVTAADTAVYYCATFDSGGYNPNWFDPWGQGTLVTVSS
VL: QSALTQPPSVSGAPGQRVTISCTGSSSSIGAGYDVHWYQQLPGTAPKLLIYGNSNRPSGVPDRFSGSKSGTSASLAITGLQAEDEADYYCQSYDSSLSGYVFGTGTKVTVLG
For B2, the binding result in assay [5] was “no binding (tested: up to 10 µg/ml)”. For the same molecule, in assay [2], the “ND50 (PRNT with MERS-CoV)” value was 0.78 and the “ND50 antibody conc. (PRNT with MERS-CoV)” value came out at 12.8 µg/mL. In assay [6], the “EC50 (read off the curve)” value was about 0.08 µg/mL.

B3: 77-A5 antibody (antibody, V domains shown)
VH: QVQLVQSGAEVKKPGSSVKVSCKASGGTFRSHAISWVRQAPGQGLEWMGGIIPIFASANYAQKFQGRVTITADESTSTAYMDLSSLRSDDTAVYYCAKNVSPKSYSGRYSISYFYGVDVWGQGTTVTVSS
VL: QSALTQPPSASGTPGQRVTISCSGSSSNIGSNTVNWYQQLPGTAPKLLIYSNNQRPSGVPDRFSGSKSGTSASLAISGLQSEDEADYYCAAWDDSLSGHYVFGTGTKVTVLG
Take B3: the “EC50 (read off the curve)” value in assay [1] is about 0.008 µg/mL. In assay [2], the “ND50 (PRNT with MERS-CoV)” value was found to be 35.6 and the “ND50 antibody conc. (PRNT with MERS-CoV)” value was determined as 0.28 µg/mL. Also, in assay [3], the Kd turned out to be 0.161 nM, the koff was 2.08e-05 s⁻¹ and the kon was found to be 130000 M⁻¹ s⁻¹. In assay [4], this molecule returned a Kd of at most 0.0751 nM, a koff of at most 1e-05 s⁻¹ and a kon of 133000 M⁻¹ s⁻¹.

B4: 90-F1 antibody (antibody, V domains shown)
VH: QVQLVQSGAEVKRPGSSVKVSCKTSGGTFNNNAINWVRQAPGQGLEWMGGIIPFFGIAKYAQKFQGRVTITADESTSTAYMELSSLRSEDTAVYYCARDLPRESSYGSGSYYTHYYAMDVWGQGTTVTVSS
VL: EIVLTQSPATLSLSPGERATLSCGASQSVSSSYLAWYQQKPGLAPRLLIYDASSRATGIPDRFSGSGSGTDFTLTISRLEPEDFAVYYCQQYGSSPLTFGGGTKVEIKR
Regarding B4, in assay [2], the “ND50 (PRNT with MERS-CoV)” value worked out at 956 and the “ND50 antibody conc. (PRNT with MERS-CoV)” value turned out to be 0.01 µg/mL. In assay [3], the Kd is 0.072 nM, the koff turned out to be 2.71e-05 s⁻¹ and the kon is 376000 M⁻¹ s⁻¹. In assay [4], this molecule gave a Kd of 0.153 nM, a koff of 9.88e-05 s⁻¹ and an on-rate (kon) of 648000 M⁻¹ s⁻¹.

B5: 90-A9 antibody (antibody, V domains shown)
VH: QVQLVQSGAEVKKPGSSVKVSCKASGGTFSSFPISWVRQAPGQGLEWMGGIIPIFGAANYAQKFQGRVTITADESTSTAYMELSSLRSEDTAVYYCARNYEEIVVIPAIMNFGYWGQGTLVTVSS
VL: EIVLTQSPGTLSLSPGERATLSCRASQSVASSYLAWYQQKPGQAPRLLIYGTSSRATGIPDRFSGSGSGADFTLTISRLEPEDFAVYYCQQYGTSPLTFGGGTKVEIK
As to B5, the binding result in assay [5] is reported as “no binding (tested: up to 10 µg/ml)”. In assay [2], the “ND50 (PRNT with MERS-CoV)” value is 0.58 and the “ND50 antibody conc. (PRNT with MERS-CoV)” value turned out to be 17.3 µg/mL.

B6: 90-E6 antibody (antibody, V domains shown)
VH: EVQLVESGGGLVQPGRSLRLSCAASGFTFDDHAMHWVRQAPGKGLEWVSGFSWNSGSIGYADSVKGRFTISRDNAKNSLYLQMNSLRAEDTALYYCAKDRRSDYYFYGMDVWGQGTTVTVSS
VL: QSVLTQPPSVSAAPGQKVTISCSGSRSNIGNNYVSWYQQLPGTAPKLLIYDNNKRPSGIPDRFSGSKSGTSATLGITGLQTGDEADYYCGTWDSSLNAGVFGGGTKLTVLG
Consider B6, for which, in assay [1], the “EC50 (read off the curve)” value is about 0.09 µg/mL. Further, in assay [2], the “ND50 (PRNT with MERS-CoV)” value was 0.68 and the “ND50 antibody conc. (PRNT with MERS-CoV)” value is 14.8 µg/mL.

B7: 77-A6 antibody (antibody, V domains shown)
VH: EVQLLESGGGLVQPGGSLRLSCADSGLTFSSYAMSWVRQAPGKGLEWVSAISVSGGSTYYSDSVKGRFTISRDNSKNTLSLQMNSLRAEDTAVYYCVKARSIVGPFDYWGQGTLVTVSS
VL: QSALTQPPSVSAAPGQKVTISCSGSSSNIGNNYVSWYQHLPGTAPKLLIYDNIMRPSGIPDRFSGSKSGTSATLGITGLQTGDEADYYCGTWDTSLSAVVFGGGTKLTVLG
For B7, the “EC50 (read off the curve)” value in assay [1] is about 0.06 µg/mL. In assay [2], the “ND50 (PRNT with MERS-CoV)” value is 95.7 and the “ND50 antibody conc. (PRNT with MERS-CoV)” value came out at 0.1 µg/mL. Also, in assay [3], the Kd was 0.673 nM, the koff came out at 3.15e-05 s⁻¹ and the kon stood at 46700 M⁻¹ s⁻¹. Besides, in assay [4], the Kd came to 0.695 nM, the koff amounted to 4.43e-05 s⁻¹ and the kon turned out to be 63800 M⁻¹ s⁻¹.

B8: 90-A3 antibody (antibody, V domains shown)
VH: QVQLVQSGAEVKKPGASVKVSCMTSGYTFTSYGISWVRQAPGQGLEWMGWISAYNGNTNYAQKLQGRVTMTTDTSTSTAYMELRSLRSDDTAVYYCARDRGAYWDCGGDCYLSAFDYWGQGTLVTVSS
VL: QAVVTQPPSVSAAPGQKVTISCSGSSSNIGNNYVSWYQQLPGTAPKLLIYDNNKRPSGIPDRFSGSKSGTSATLGITGLQTGDEADYYCGTWDSSLSAVVFGGGTKLTVLG
With B8, the binding result in assay [5] is on record as “no binding (tested: up to 10 µg/ml)”. In assay [2], the “ND50 (PRNT with MERS-CoV)” value was 0.63 and the “ND50 antibody conc. (PRNT with MERS-CoV)” value is 15.8 µg/mL.

B9: 90-B7 antibody (antibody, V domains shown)
VH: EVQLLESGGGLVKPGGSLRLSCAASGFTFGSYSMTWVRQAPGKGLEWVSSISSSSSYIYYADSVKGRFTISRDNAKNSLFLQMNSLRAEDTAVYYCARGNGYCSHNSCYKIGVWFDPWGQGTLVTVSS
VL: QAVVTQPPSVSAAPGQKVTISCSGSSSNIGNNYVSWYQQLPGTAPKLLIYDNNKRPSGIPDRFSGSKSGTSATLGITGLQTGDEADYYCGTWDSSLSAFVFGTGTKVTVLG
In the case of B9, in assay [2], the “ND50 (PRNT with MERS-CoV)” value worked out at 14.9 and the “ND50 antibody conc. (PRNT with MERS-CoV)” value came to 0.67 µg/mL. The binding result in assay [7] is “no binding (tested: 500 nM)”. Further, in assay [4], the Kd was found to be 0.153 nM, the dissociation rate constant (koff) amounted to 0.000104 s⁻¹ and the kon was 681000 M⁻¹ s⁻¹.

B10: 90-B2 antibody (antibody, V domains shown)
VH: QVQLQESGPGLVKPSETLSLTCTVSGGSISSSSYYWGWIRQPPGKGLEWIGSIYYSGNTYYNPSLKSRVTISVDTSKNHFSLRLSSVTAADTAVYFCARSLPHYDSTGYLLYWGQGTLVTVSS
VL: EIVLTQSPATLSLSPGGRATLSCRASQSVSRYLAWYQQKPGRAPRLLIYDASNRAPGIPARFSGSGSGTDFTLTISSLEPEDFAVYYCQQRSNWPQTTFGPGTKVDIKR
Consider B10, for which, in assay [2], the “ND50 (PRNT with MERS-CoV)” value was determined as 39.5 and the “ND50 antibody conc. (PRNT with MERS-CoV)” value came to 0.25 µg/mL. Moreover, in assay [7], the binding result is recorded as “no binding (tested: 500 nM)”. In assay [4], the Kd was at most 0.0751 nM, the koff was at most 1e-05 s⁻¹ and the kon was 131000 M⁻¹ s⁻¹.
